Data reported in patent publication US20130109846A1 (published 2013).

Assays:
[1] = molecular target: T1, recombinant human CD28/Fc Chimera (human, UniProt P10747 19-152); test: BIAcore, CM5 chip coated with 12500 RU of CD28-Fc
T1 construct: bought from R&D Systems; Fc part of the bought chimera not given

[2] = molecular target: T2, human CD28 (human, UniProt P10747 19-220); test: cell-based or functional assay
[3] = molecular target: T2, human CD28; test: cell-based or functional assay; remark: listed apart in the source
[4] = molecular target: T2, human CD28; test: cell-based or functional assay; remark: listed apart in the source

B1: DOM21-27 (other)
VL: DIQMTQSPSSLSASVGDRVTITCRASQSIGTGLRWYQQKPGKAPMLLIYRASILQSGVPSRFSGSGSGTDFTLTISSLQPEDFATYYCQQTTLQPFTFSQGTKVEIKR
notes: VK dAb
binding result [1]: binds

B2: DOM21-6 (other)
VH: EVQLLESGGGLVQPGGSLRLSCAASGFTFENYGMAWVRQAPGKGLEWVSNIGRAGSVTYYADSVKGRFTISRDNSKNTLYLQMNSLRAEDTAVYYCAKVQSWRTFDYWGQGTLVTVSS
notes: VH dAb
binding result [1]: binds

B3: DOM21-18 (other)
VL: DIQMTQSPSSLSASVGDRVTITCRASQYIGTSLNWYQQKPGKAPKLLTYQASLLQSGVPSRFSGSGSGTDFTLTISSLQPEDFATYYCQQLALRPMTFGQGTKVEIKR
notes: VK dAb
binding result [1]: binds

B4: DOM21-20 (other)
VH: EVQLLESGGGLVQPGGSLRLSCAASGFTFPAYSMIWVRQAPGKGLEWVSTISPLGYSTYYADSVKGRFTISRDNSKNTLYLQMNSLRAEDTAVYYCAEQTAYLNRATEHFDYWGQGTLVTVSS
notes: VH dAb
binding result [1]: binds

B5: 1h-99-237 (other)
VH: EVQLLESGGGLVQPGGSLRLSCAASGFTFDSANMSWARQAPGKGLEWVSWIEAPGVQTFYADSVRGRFTISRDNSKNTLYLQMNSLRAEDTAVYYCARSPFGPLYGFDYRGQGTLVTVSS
Luciferase assay (EC50) [2]: 3 nM | MLR assay (EC50) [2]: 3 nM | DC-MLR Assay (EC50 nM) [3]: 3 nM | Luciferase assay (EC50 nM) [3]: 3 nM

B6: 1h-99-2 (other)
VH: EVQLLESGGGLVQPGGSLRLSCAASGFTFDSANMSWVRQAPGKGLEWVSWIEDTGTQTFYADSVKGRFTISRDNSKNTLYLQMNSLRAEDTAVYYCAKSPFGPLYGFDYRGQGTLVTVSS
Luciferase assay (EC50) [2]: 17 nM | MLR assay (EC50) [2]: 13 nM | DC-MLR Assay (EC50 nM) [3]: 13 nM | Luciferase assay (EC50 nM) [3]: 17 nM

B7: 1h-99-265 (other)
VH: EVQLLESGGGLVQPGGSLRLSCAASGFTFDKSNMSWARQAPGKGLEWVSWIEASGVQTFYADSVKGRFTISRDNSKNTLYLQMNSLRAEDTAVYYCAKSPFGPLYGFDYRGQGTLVTVSS
Luciferase assay (EC50) [2]: 4 nM | MLR assay (EC50) [2]: 3 nM | IFNγ (EC50 nM), DC-driven MLR [4]: 4.6 nM | IL-2 (EC50 nM), DC-driven MLR [4]: 2.4 nM | TNFα (EC50 nM), DC-driven MLR [4]: 3.6 nM

B8: 1h-99-237 40K linear PEG (other)
VH: EVQLLESGGGLVQPGGSLRLSCAASGFTFDSANMSWARQAPGKGLEWVSWIEAPGVQTFYADSVRGRFTISRDNSKNTLYLQMNSLRAEDTAVYYCARSPFGPLYGFDYRGQGTLVTVSS
modifications: 40K linear PEG; site of attachment not stated
DC-MLR Assay (EC50 nM) [3]: 2 nM

B9: 1h-99-238 (other)
VH: EVQLLESGGGLVQPGGSLRLSCAASGFTFDSANMSWARQAPGKGLEWVSWIEASGVQTFYADSVKGRFTISRDNSKNTLYLQMNSLRAEDTAVYYCAKSPFGPLYGFDYRGQGTLVTVSS
Luciferase assay (EC50) [2]: 3 nM | MLR assay (EC50) [2]: 5 nM | DC-MLR Assay (EC50 nM) [3]: 5 nM | Luciferase assay (EC50 nM) [3]: 3 nM

B10: 1h-99-238 40K linear PEG (other)
VH: EVQLLESGGGLVQPGGSLRLSCAASGFTFDSANMSWARQAPGKGLEWVSWIEASGVQTFYADSVKGRFTISRDNSKNTLYLQMNSLRAEDTAVYYCAKSPFGPLYGFDYRGQGTLVTVSS
modifications: 40K linear PEG; site of attachment not stated
DC-MLR Assay (EC50 nM) [3]: 29 nM | Luciferase assay (EC50 nM) [3]: 4.5 nM

B11: DOM21-28 (other)
VL: DIQMTQSPSSLSASVGDRVTITCRASQSISHSLVWYQQKPGKAPKLLIYWASLLQSGVPSRFSGSGSGTDFTLTISSLQPEDFATYYCQQGMTTPFTFGQGTKVEIKR
notes: VK dAb
binding result [1]: binds

B12: DOM21-44 (other)
VH: EVQLLESGGGLVQPGGSLRLSCAASGFTFARYTMVWVRQAPGKGLEWVSAIHFDGRTTYYADSVKGRFTISRDNSKNTLYLQMNSLRAEDTAVYYCAKNEWASLKHFDYWGQGTLVTVSS
notes: VH dAb
binding result [1]: binds

B13: 1h-239-8 (other)
VL: DIQMTQSPSSLSASVGDRVTITCRASQSIYPFLEWYQQKPGKAPKLLIYFTSRLQSGVPSRFSGSGSGTDFTLTISSLQPEDFATYYCLQNVTNPATFSQGTKVEIKR
Luciferase assay (EC50) [2]: 10 nM | DC-MLR Assay (EC50 nM) [3]: 13 nM | Luciferase assay (EC50 nM) [3]: 10 nM

B14: 1h-239-891(Q79C) 40K branched PEG (other)
VL: DIQMTQSPSSLSASVGDRVTITCRASRPIWPFLEWYQQKPGKAPKLLIYFTSRLRHGVPSRFSGSGSGTDFTLTISSLCPEDFATYYCLQNVANPATFSQGTKVEIKR
modifications: 40K branched PEG; engineered cysteine Q79C
DC-MLR Assay (EC50 nM) [3]: 4.9 nM

B15: 1h-239-891(Q3C) 40K branched PEG (other)
VL: DICMTQSPSSLSASVGDRVTITCRASRPIWPFLEWYQQKPGKAPKLLIYFTSRLRHGVPSRFSGSGSGTDFTLTISSLQPEDFATYYCLQNVANPATFSQGTKVEIKR
modifications: 40K branched PEG; engineered cysteine Q3C
DC-MLR Assay (EC50 nM) [3]: 1.5 nM

B16: 1h-239-8 40K linear PEG (other)
VL: DIQMTQSPSSLSASVGDRVTITCRASQSIYPFLEWYQQKPGKAPKLLIYFTSRLQSGVPSRFSGSGSGTDFTLTISSLQPEDFATYYCLQNVTNPATFSQGTKVEIKR
modifications: 40K linear PEG; site of attachment not stated
DC-MLR Assay (EC50 nM) [3]: 285 nM | Luciferase assay (EC50 nM) [3]: 510 nM

B17: 1h-239-891(S60C) 30K linear PEG (other)
VL: DIQMTQSPSSLSASVGDRVTITCRASRPIWPFLEWYQQKPGKAPKLLIYFTSRLRHGVPCRFSGSGSGTDFTLTISSLQPEDFATYYCLQNVANPATFSQGTKVEIKR
modifications: 30K linear PEG; engineered cysteine S60C
DC-MLR Assay (EC50 nM) [3]: 0.8 nM

B18: 1h-239-891(S9C) 40K branched PEG (other)
VL: DIQMTQSPCSLSASVGDRVTITCRASRPIWPFLEWYQQKPGKAPKLLIYFTSRLRHGVPSRFSGSGSGTDFTLTISSLQPEDFATYYCLQNVANPATFSQGTKVEIKR
modifications: 40K branched PEG; engineered cysteine S9C
DC-MLR Assay (EC50 nM) [3]: 1.3 nM

B19: 1h-239-891(K42C) 40K branched PEG (other)
VL: DIQMTQSPSSLSASVGDRVTITCRASRPIWPFLEWYQQKPGCAPKLLIYFTSRLRHGVPSRFSGSGSGTDFTLTISSLQPEDFATYYCLQNVANPATFSQGTKVEIKR
modifications: 40K branched PEG; engineered cysteine K42C
DC-MLR Assay (EC50 nM) [3]: 13 nM

B20: 1h-239-850 (other)
VL: DIQMTQSPSSLSASVGDRVTITCRASRPIWPFLEWYQQKPGKAPKLLIYFTSRLQSGVPSRFSGSGSGTDFTLTISSLQPEDFATYYCLQNVSMPATFSQGTKVEIKR
Luciferase assay (EC50) [2]: 9 nM | MLR assay (EC50) [2]: 2 nM | DC-MLR Assay (EC50 nM) [3]: 2 nM | Luciferase assay (EC50 nM) [3]: 9 nM

B21: 1h-239-896 (other)
VL: DIQMTQSPSSLSASVGDRVTITCRASRPIWPFLEWYQQKPGKAPKLLIYFTSRLARGVPSRFSGSGSGTDFTLTISSLQPEDFATYYCLQNVQMPATFSQGTKVEIKR
IFNγ (EC50 nM), DC-driven MLR [4]: 0.3 nM | IL-2 (EC50 nM), DC-driven MLR [4]: 0.3 nM | TNFα (EC50 nM), DC-driven MLR [4]: 0.3 nM

B22: 1h-239-891(S60C) 40K branched PEG (other)
VL: DIQMTQSPSSLSASVGDRVTITCRASRPIWPFLEWYQQKPGKAPKLLIYFTSRLRHGVPCRFSGSGSGTDFTLTISSLQPEDFATYYCLQNVANPATFSQGTKVEIKR
modifications: 40K branched PEG; engineered cysteine S60C
DC-MLR Assay (EC50 nM) [3]: 1.2 nM

B23: 1h-239-890 (other)
VL: DIQMTQSPSSLSASVGDRVTITCRASRPIWPFLEWYQQKPGKAPKLLIYFTSRLARGVPSRFSGSGSGTDFTLTISSLQPEDFATYYCLQNVANPATFSQGTKVEIKR
IFNγ (EC50 nM), DC-driven MLR [4]: 0.3 nM | IL-2 (EC50 nM), DC-driven MLR [4]: 0.1 nM | TNFα (EC50 nM), DC-driven MLR [4]: 0.2 nM

B24: 1h-239-891(G41C) 40K branched PEG (other)
VL: DIQMTQSPSSLSASVGDRVTITCRASRPIWPFLEWYQQKPCKAPKLLIYFTSRLRHGVPSRFSGSGSGTDFTLTISSLQPEDFATYYCLQNVANPATFSQGTKVEIKR
modifications: 40K branched PEG; engineered cysteine G41C
DC-MLR Assay (EC50 nM) [3]: 2 nM

B25: 1h-239-850 40K linear PEG (other)
VL: DIQMTQSPSSLSASVGDRVTITCRASRPIWPFLEWYQQKPGKAPKLLIYFTSRLQSGVPSRFSGSGSGTDFTLTISSLQPEDFATYYCLQNVSMPATFSQGTKVEIKR
modifications: 40K linear PEG; site of attachment not stated
DC-MLR Assay (EC50 nM) [3]: 4 nM | Luciferase assay (EC50 nM) [3]: 2 nM

B26: DOM21-38 (other)
VH: EVQLLESGGGLVQPGGSLRLSCAASGFTFILYDMQWVRQAPGKGLEWVSRISANGHDTYYADSVKGRFTISRDNSKNTLYLQMNSLRAEDTAVYYCAKGPHYLFDYWGQGTLVTVSS
notes: VH dAb
binding result [1]: binds

B27: DOM21-4 (other)
VH: EVQLLESGGGLVQPGGSLRLSCAASGFTFSRYHMAWVRQAPGKGLEWVSVIDSLGLQTYYADSVKGRFTISRDNSKNTLYLQMNSLRAEDTAVYYCAEYGGAFDYWGQGTLVTVSS
notes: VH dAb
binding result [1]: binds

B28: DOM21-22 (other)
VH: EVQLLESGGGLVQPGGSLRLSCAASGFTFELYQMGWVRQAPGKGLEWVSTIMPSGNLTYYADSVKGRFTISRDNSKNTLYLQMNSLRAEDTAVYYCAKMWSLNLGFHAAFDYWGQGTLVTVSS
notes: VH dAb
binding result [1]: binds
